Measurements published in patent US4642335A, “Anthracycline compounds bound to hydrophilic polypeptides” (Ajinomoto Co., Inc., priority 1984, dated 1987).
Converted amounts (≈) assume the structure as drawn. Where two headings read alike, the source gives them in different places.

Columns and labels:
[1] = test system: Micrococcus luteus ATCC9341; experiment: antibacterial activity, MIC, Micrococcus luteus ATCC9341; format: cell-based
[2] = test system: Bacillus subtilis ATCC6633; experiment: antibacterial activity, MIC, Bacillus subtilis ATCC6633; format: cell-based
[3] = test system: Pseudomonas aeruginosa ATCC10145; experiment: antibacterial activity, MIC, Pseudomonas aeruginosa ATCC10145; format: cell-based
mouse L1210 leukemia = experiment: antitumor activity against mouse L1210 leukemia, life prolongation rate; format: in vivo; settings: once a day for five days starting 24 hours after tumor cell injection, control survival day = 100%
Method: (§1) These HB-6 substances were tested for their antitumor activity in terms of mouse L1210 leukemia. L1210 leukemia cells (1×10^5) were abdominally injected to each mouse, and the test sample was administered once a day for consecutive five days, with the first administration being started 24 hours after injection of the tumor cells. The result is summarized in Table 1, in which the antitumor activity of each drug is expressed as life prolongation rate, taking the survival day for the control group as 100%.
as §1, with “HBW-6” for “HB-6”, “2,” for “1,”

Solubility = format: physicochemical; settings: water and organic solvents
Isoelectric point = format: physicochemical

COc1cccc2c1C(=O)c1c(O)c3c(c(O)c1C2=O)C[C@@](O)(C(C)=O)C[C@@H]3O[C@H]1C[C@H](N)[C@H](O)[C@H](C)O1 [Daunomycin, daunomycin, reference compound] gave an MIC ([1]; read-out: MIC) of 1.2 mg/L (≈ 2.27 µM), an MIC ([2]; read-out: MIC) of 5.8 mg/L (≈ 11 µM) and an MIC ([3]; read-out: MIC) of over 10 mg/L. The “Life Prolongation Rate” value (mouse L1210 leukemia; dose 2 mg/Kg) was 145%.

B1: NCS-apoprotein: methanol-insoluble fraction (protein moiety) of neocarzinostatin (protein, UniProt P0A3R9 35-147, looked up)
Neocarzinostatin: AAPTATVTPSSGLSDGTVVKVAGAGLQAGTAYDVGQCAWVDTGVLACNPADFSSVTADANGSASTSLTVRRSFEGFLFDGTRWGTVDCTTAACQVGLSDAAGNGPEGVAISFN
For B1, the Solubility (Solubility) was “Soluble in water; insoluble in methanol, ethanol, acetone, butanol and propanol”, the MIC [1] was over 100 mg/L and the Isoelectric point (Isoelectric point) was 3.2 pH. The MIC [2] was over 100 mg/L, the MIC [3] was over 100 mg/L and the “Life Prolongation Rate” value (mouse L1210 leukemia; dose 2 mg/Kg) was 101%.

B2: HBW-21(B): NCS-apoprotein and aclacinomycin A bound together, molar ratio 1:5 (conjugate, UniProt P0A3R9 35-147, looked up)
Neocarzinostatin: B1 Neocarzinostatin
modifications: complex with aclacinomycin A, 1:5
With B2 the “Life Prolongation Rate” value (mouse L1210 leukemia; dose 1 mg/Kg) was 162%.

B3: HBW-21(A): NCS-apoprotein and aclacinomycin A bound together, molar ratio 1:1 (conjugate, UniProt P0A3R9 35-147, looked up)
Neocarzinostatin: B1 Neocarzinostatin
modifications: aclacinomycin A conjugate, 1:1
With B3 the “Life Prolongation Rate” value (mouse L1210 leukemia; dose 1 mg/Kg) was 135%.

B4: HBW-10(A): NCS-apoprotein and daunomycin bound through hydrogen bond and/or hydrophobic bond, molar ratio 1:1 (conjugate, UniProt P0A3R9 35-147, looked up)
Neocarzinostatin: B1 Neocarzinostatin
modifications: noncovalent complex with daunomycin, 1:1
B4 gave an MIC [1] of 0.30 mg/L, an MIC [2] of 2.3 mg/L and an MIC [3] of over 10 mg/L. For the same molecule, the “Life Prolongation Rate” value (mouse L1210 leukemia; dose 1 mg/Kg) was 260%.
